According to the supplement of paper PMC7125110:
± gives the standard error. This sample holds only a part of the variants without activity.

B1: glmS ribozyme (parent)
chain: AUAAAAGCGCCAGAACUACAGAAAUGUAGUUGACGAGGAGGAGGUUUAUCGAAUUUUCGGCGGAUGCCUCCAAA

Legend:
Details in all cases: with glucosamine-6-phosphate
[1] = variants of: B1; test: self-cleavage kobs at 40 uM GlcN6P; higher = faster cleavage; RNA array
How it was run: (§1)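 E. coli RNA polymerase transcribed barcoded ribozyme variants in situ on sequenced MiSeq chips, which were tracked via a hybridised Cy3 probe at 37 °C. Tiles were imaged over ~14 h after glucosamine-6-phosphate (40 μM to 10 mM) in HEPES/KCl/Mg(OAc)2 buffer was flowed in. Normalised per-tile medians were fit to one- or two-exponential decays for kobs, and kcat and KM came from weighted Michaelis–Menten fits.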

[2] = variants of: B1; test: self-cleavage kobs at 10000 uM GlcN6P; higher = faster cleavage; RNA array
How it was run: as §1

[3] = variants of: B1; test: self-cleavage kobs at 2500 uM GlcN6P; higher = faster cleavage; RNA array
How it was run: as §1

[4] = variants of: B1; test: self-cleavage kobs at 160 uM GlcN6P; higher = faster cleavage; RNA array
How it was run: as §1

[5] = variants of: B1; test: self-cleavage kobs at 640 uM GlcN6P; higher = faster cleavage; RNA array
How it was run: as §1

AUAAAGGCGCCAUAACUACAGAAAUGUAGUUGACGAGUAUGAGGUUUAUCGAAUUUUCGGCGGAUGCCUCCAAA [A6G G13U G38U G40U]
self-cleavage kobs at 40 uM GlcN6P [1]: < 1e-05 s⁻¹
self-cleavage kobs at 10000 uM GlcN6P [2]: < 1e-05 s⁻¹

AUAAAGGCGCCAGAACUACAGAAAUGUAGUUGACGAGGAGGAGUUUUAUCGAAUUUUUGGCGUAUGCCUCCAAA [A6G G44U C58U G63U]
self-cleavage kobs at 40 uM GlcN6P [1]: < 1e-05 s⁻¹
self-cleavage kobs at 2500 uM GlcN6P [3]: < 1e-05 s⁻¹

AUAAAGGCGCCAGAACUACAGAAAUGUAGUUGACGAGGAGGAUGUUUAUCGAAUUUUCGGCGGAUGUCUCCAAA [A6G G43U C67U]
self-cleavage kobs at 40 uM GlcN6P [1]: < 1e-05 s⁻¹
self-cleavage kobs at 160 uM GlcN6P [4]: < 1e-05 s⁻¹
self-cleavage kobs at 640 uM GlcN6P [5]: < 1e-05 s⁻¹
self-cleavage kobs at 10000 uM GlcN6P [2]: < 1e-05 s⁻¹

AUAAAGGCGCCAGAAGUACAGAAAUGUAGUUGACGAGGAGGAGGUUUAUCGAAUUUUCGGCGGAUCCCUCCAAA [A6G C16G G66C]
self-cleavage kobs at 40 uM GlcN6P [1]: < 1e-05 s⁻¹

AUAAAGGCCCCAGAACUACAGAAAUGUAGUUGACGAGGAGGAGGUUUAUCGAAUUUUCUGCGGAUGCCUCCAAA [A6G G9C G59U]
self-cleavage kobs at 40 uM GlcN6P [1]: < 1e-05 s⁻¹
self-cleavage kobs at 2500 uM GlcN6P [3]: < 1e-05 s⁻¹

AUAAAGGCGCCAGAACUACAGAAAUGUAGUUGACGAGGACGAGGUUGAGCGAAUUUUGGGCGGAUGCAUCCAAA [A6G G40C U47G U49G C58G C68A]
self-cleavage kobs at 40 uM GlcN6P [1]: < 1e-05 s⁻¹
self-cleavage kobs at 10000 uM GlcN6P [2]: < 1e-05 s⁻¹

AUAAAGGCGCCAGAACUACAGAAAUGUAGUUGACGAGGAGGAGCUUUAUCGAAUUUUCGGCGGAUGCCUCCAAA [A6G G44C]
self-cleavage kobs at 40 uM GlcN6P [1]: < 1e-05 s⁻¹
self-cleavage kobs at 160 uM GlcN6P [4]: < 1e-05 s⁻¹
self-cleavage kobs at 640 uM GlcN6P [5]: < 1e-05 s⁻¹
self-cleavage kobs at 2500 uM GlcN6P [3]: < 1e-05 s⁻¹
self-cleavage kobs at 10000 uM GlcN6P [2]: < 1e-05 s⁻¹

AUAAAGGCGCCAGAACUACAGAAAUGUAGUUGACGAGGAGGAGAUUUAUCGAAUUUUCGGCGGAUGCCUCCAAA [A6G G44A]
self-cleavage kobs at 40 uM GlcN6P [1]: < 1e-05 s⁻¹
self-cleavage kobs at 160 uM GlcN6P [4]: < 1e-05 s⁻¹
self-cleavage kobs at 640 uM GlcN6P [5]: < 1e-05 s⁻¹
self-cleavage kobs at 2500 uM GlcN6P [3]: < 1e-05 s⁻¹
self-cleavage kobs at 10000 uM GlcN6P [2]: < 1e-05 s⁻¹

AUAAAGGCGCCAGAACUACAGAAAUGUAGUUGACGAGGAGUAGGUUUAUCGAAUUUGCCGCGGAUGCCUCUAAA [A6G G41U U57G G59C C71U]
self-cleavage kobs at 40 uM GlcN6P [1]: < 1e-05 s⁻¹
self-cleavage kobs at 160 uM GlcN6P [4]: < 1e-05 s⁻¹
self-cleavage kobs at 640 uM GlcN6P [5]: < 1e-05 s⁻¹
self-cleavage kobs at 2500 uM GlcN6P [3]: < 1e-05 s⁻¹
self-cleavage kobs at 10000 uM GlcN6P [2]: < 1e-05 s⁻¹

AUAAAGGCGCCAGAACUACAGAAAUGUAGUUAACGACGAGGAGGUGUAUCGAAUUUUAGGCGGAUGGCUCCAAA [A6G G32A G37C U46G C58A C67G]
self-cleavage kobs at 40 uM GlcN6P [1]: 0.000232 ± 6.3e-05 s⁻¹
self-cleavage kobs at 640 uM GlcN6P [5]: 0.000494 ± 0.00014 s⁻¹
self-cleavage kobs at 10000 uM GlcN6P [2]: 0.000132 ± 3.3e-05 s⁻¹

AUAAAGGCGCCAGAACUACAGAAAUGUAGUUGACGAGCAGGAGGUUUAUCGAAUUUUCGGCGGAUGCCUCCAAA [A6G G38C]
self-cleavage kobs at 40 uM GlcN6P [1]: < 1e-05 s⁻¹
self-cleavage kobs at 160 uM GlcN6P [4]: < 1e-05 s⁻¹
self-cleavage kobs at 640 uM GlcN6P [5]: < 1e-05 s⁻¹
self-cleavage kobs at 2500 uM GlcN6P [3]: < 1e-05 s⁻¹
self-cleavage kobs at 10000 uM GlcN6P [2]: < 1e-05 s⁻¹

AUAAAGGCGCCAGAACUACAGAAAUGUAGUUGACGAGGAGGACGUUUAUCGAAUUUUCGGCGGAUGCCUCCAAA [A6G G43C]
self-cleavage kobs at 40 uM GlcN6P [1]: < 1e-05 s⁻¹
self-cleavage kobs at 160 uM GlcN6P [4]: < 1e-05 s⁻¹
self-cleavage kobs at 640 uM GlcN6P [5]: < 1e-05 s⁻¹
self-cleavage kobs at 2500 uM GlcN6P [3]: < 1e-05 s⁻¹
self-cleavage kobs at 10000 uM GlcN6P [2]: < 1e-05 s⁻¹

AUAAAGGCGCCAGAACUACAGAAAUGUAGUUGACCAGGAGGAGGUUUAUCGAAUUUUCGGCGGAUGCCUCCAAA [A6G G35C]
self-cleavage kobs at 40 uM GlcN6P [1]: < 1e-05 s⁻¹
self-cleavage kobs at 160 uM GlcN6P [4]: < 1e-05 s⁻¹
self-cleavage kobs at 640 uM GlcN6P [5]: < 1e-05 s⁻¹
self-cleavage kobs at 2500 uM GlcN6P [3]: < 1e-05 s⁻¹
self-cleavage kobs at 10000 uM GlcN6P [2]: < 1e-05 s⁻¹

AUAAAGGCGCCAGAACUACAGAAAUGUAGUUGACGAGGAGGAGUUUUAUCGAAUUUUCGGUGGAUGCCUCCAAA [A6G G44U C61U]
self-cleavage kobs at 40 uM GlcN6P [1]: < 1e-05 s⁻¹
self-cleavage kobs at 160 uM GlcN6P [4]: < 1e-05 s⁻¹
self-cleavage kobs at 640 uM GlcN6P [5]: < 1e-05 s⁻¹
self-cleavage kobs at 2500 uM GlcN6P [3]: < 1e-05 s⁻¹
self-cleavage kobs at 10000 uM GlcN6P [2]: < 1e-05 s⁻¹

AUAAAGACGCCAGAACUACAGAAAUGUAGUUGACGAGGAGGAGGUUUAUCCAAUUUUCGGCGGAUGCCUCCAAA [A6G G7A G51C]
self-cleavage kobs at 40 uM GlcN6P [1]: < 1e-05 s⁻¹
self-cleavage kobs at 10000 uM GlcN6P [2]: < 1e-05 s⁻¹

AUAAAGGCGCUAGAACUACAGAAAUGUAGUUCACGAGGAGGAGGUUUAUCGAAUUUUCGGCGGAUGCCUCCAAA [A6G C11U G32C]
self-cleavage kobs at 40 uM GlcN6P [1]: < 1e-05 s⁻¹

AUAAAGGCGCCAGAACUACAGAAAUGUAAUUGAGGAGGAGGAGGUUUAUCGAAUUUUCGGCGGAUGCCUCCAAA [A6G G29A C34G]
self-cleavage kobs at 40 uM GlcN6P [1]: < 1e-05 s⁻¹
self-cleavage kobs at 640 uM GlcN6P [5]: < 1e-05 s⁻¹
self-cleavage kobs at 2500 uM GlcN6P [3]: < 1e-05 s⁻¹
self-cleavage kobs at 10000 uM GlcN6P [2]: < 1e-05 s⁻¹

AUAAAGGCGCCAGAACUACAGAAAUGUAGUUGACGAGGAGGAGGUUUAUCGAAUUUUCGUCGGAUGCCUCCAAA [A6G G60U]
self-cleavage kobs at 40 uM GlcN6P [1]: < 1e-05 s⁻¹
self-cleavage kobs at 160 uM GlcN6P [4]: < 1e-05 s⁻¹
self-cleavage kobs at 640 uM GlcN6P [5]: < 1e-05 s⁻¹

AUAAAGGCGCAAGAACUACAGAAAUGUAGUUGACGAGGAGGAGGUUUAUGGAAUUUUUGGCGGAUGCCUCCAAA [A6G C11A C50G C58U]
self-cleavage kobs at 40 uM GlcN6P [1]: 0.000139 ± 2.5e-05 s⁻¹

AUAAAGGCGCCAGAACUACAGAAAUGUAGUUGACGAGGAGGAGGUUUAUCGAAUUUUCGUCGGAUGCAUCCAAA [A6G G60U C68A]
self-cleavage kobs at 40 uM GlcN6P [1]: < 1e-05 s⁻¹
self-cleavage kobs at 640 uM GlcN6P [5]: < 1e-05 s⁻¹
self-cleavage kobs at 2500 uM GlcN6P [3]: < 1e-05 s⁻¹
self-cleavage kobs at 10000 uM GlcN6P [2]: < 1e-05 s⁻¹

AUAAAGGCGCCAGAACUACAGAAAUGUAUUUGACAAGGAGGAGGUUUAUGUAAUUUUCGGCGGAUUCCUCUAAA [A6G G29U G35A C50G G51U G66U C71U]
self-cleavage kobs at 40 uM GlcN6P [1]: < 1e-05 s⁻¹

AUAAAGGCGCCACAACUACAGAAAUGUAGUGGACGAGGCGGAGGGUUAUCGAAUUUUCGGCGGAUGCCUCCAAA [A6G G13C U31G A39C U45G]
self-cleavage kobs at 40 uM GlcN6P [1]: < 1e-05 s⁻¹
self-cleavage kobs at 10000 uM GlcN6P [2]: < 1e-05 s⁻¹

AUAAAGGCGCCAGAACUACAGAAAUGUAGUUGACGAGGAGGAGGUUUAUCGAAUUUUCGGGGGAUGCCUCCAAA [A6G C61G]
self-cleavage kobs at 40 uM GlcN6P [1]: < 1e-05 s⁻¹
self-cleavage kobs at 160 uM GlcN6P [4]: < 1e-05 s⁻¹
self-cleavage kobs at 640 uM GlcN6P [5]: < 1e-05 s⁻¹
self-cleavage kobs at 2500 uM GlcN6P [3]: < 1e-05 s⁻¹
self-cleavage kobs at 10000 uM GlcN6P [2]: < 1e-05 s⁻¹
